Experimental data taken from patent publication US20230250154A1 (CYTONICS, published 2023).

T1: ADAMTS5 (human, UniProt Q9UNA0 262-622, limits assumed)
T1 sequence (looked up): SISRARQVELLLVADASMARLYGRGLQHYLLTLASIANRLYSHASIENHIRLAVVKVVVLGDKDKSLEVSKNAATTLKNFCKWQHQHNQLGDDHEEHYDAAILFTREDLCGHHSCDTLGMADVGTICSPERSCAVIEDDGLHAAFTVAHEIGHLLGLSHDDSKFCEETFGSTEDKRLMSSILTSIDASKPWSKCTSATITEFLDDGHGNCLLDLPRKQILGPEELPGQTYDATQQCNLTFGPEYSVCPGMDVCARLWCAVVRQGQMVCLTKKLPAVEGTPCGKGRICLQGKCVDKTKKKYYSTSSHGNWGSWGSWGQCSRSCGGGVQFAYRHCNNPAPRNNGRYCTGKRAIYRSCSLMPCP

T2: MMP1 (human, UniProt P03956 100-469, limits assumed)
T2 sequence (looked up): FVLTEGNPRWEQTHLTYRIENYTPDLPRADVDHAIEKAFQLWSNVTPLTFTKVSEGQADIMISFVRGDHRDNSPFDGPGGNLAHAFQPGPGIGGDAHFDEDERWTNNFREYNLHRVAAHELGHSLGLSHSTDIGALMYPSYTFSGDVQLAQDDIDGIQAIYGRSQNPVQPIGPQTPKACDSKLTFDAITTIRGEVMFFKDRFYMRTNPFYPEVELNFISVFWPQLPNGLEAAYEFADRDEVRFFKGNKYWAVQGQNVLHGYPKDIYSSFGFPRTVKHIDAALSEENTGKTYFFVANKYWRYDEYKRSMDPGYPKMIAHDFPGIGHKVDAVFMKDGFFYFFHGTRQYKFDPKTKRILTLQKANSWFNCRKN

T3: MMP7 (UniProt P09237 95-267, limits assumed)
T3 sequence (looked up): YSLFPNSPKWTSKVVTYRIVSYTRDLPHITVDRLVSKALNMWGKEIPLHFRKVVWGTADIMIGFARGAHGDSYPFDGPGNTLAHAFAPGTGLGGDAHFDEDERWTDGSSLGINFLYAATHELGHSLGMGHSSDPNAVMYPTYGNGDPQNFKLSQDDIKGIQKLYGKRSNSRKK

T4: MMP2 (human, UniProt P08253 110-660, limits assumed)
T4 sequence (looked up): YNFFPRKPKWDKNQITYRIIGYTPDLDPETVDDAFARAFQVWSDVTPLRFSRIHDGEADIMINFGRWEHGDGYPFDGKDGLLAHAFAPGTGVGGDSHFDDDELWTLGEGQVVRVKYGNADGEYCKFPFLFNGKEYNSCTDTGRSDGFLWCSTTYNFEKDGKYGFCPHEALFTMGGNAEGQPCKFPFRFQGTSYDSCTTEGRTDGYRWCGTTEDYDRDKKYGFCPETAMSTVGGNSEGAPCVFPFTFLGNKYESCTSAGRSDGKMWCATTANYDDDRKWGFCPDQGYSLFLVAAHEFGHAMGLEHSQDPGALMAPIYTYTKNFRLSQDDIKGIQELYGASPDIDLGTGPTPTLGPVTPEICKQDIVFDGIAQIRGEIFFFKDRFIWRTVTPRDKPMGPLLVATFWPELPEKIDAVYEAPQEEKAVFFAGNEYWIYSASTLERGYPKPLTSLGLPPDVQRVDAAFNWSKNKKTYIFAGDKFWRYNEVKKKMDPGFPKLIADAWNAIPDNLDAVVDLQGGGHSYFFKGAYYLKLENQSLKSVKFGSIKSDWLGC

T5: ADAMTS4 (human, UniProt O75173 213-685, limits assumed)
T5 sequence (looked up): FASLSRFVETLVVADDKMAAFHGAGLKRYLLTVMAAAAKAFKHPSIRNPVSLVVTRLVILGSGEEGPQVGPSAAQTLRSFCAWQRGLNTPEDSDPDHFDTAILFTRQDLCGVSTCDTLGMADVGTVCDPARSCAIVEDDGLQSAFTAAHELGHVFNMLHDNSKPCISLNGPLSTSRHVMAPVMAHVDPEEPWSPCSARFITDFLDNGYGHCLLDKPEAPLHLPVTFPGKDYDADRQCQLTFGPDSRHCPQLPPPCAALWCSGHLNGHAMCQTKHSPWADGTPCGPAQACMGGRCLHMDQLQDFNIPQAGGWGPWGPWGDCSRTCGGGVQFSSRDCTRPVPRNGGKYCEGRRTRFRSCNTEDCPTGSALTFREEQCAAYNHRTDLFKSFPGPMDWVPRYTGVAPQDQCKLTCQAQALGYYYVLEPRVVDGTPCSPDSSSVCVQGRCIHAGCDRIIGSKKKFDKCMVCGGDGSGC

T6: Cathepsin G (UniProt P08311 21-244)
T6 sequence (looked up): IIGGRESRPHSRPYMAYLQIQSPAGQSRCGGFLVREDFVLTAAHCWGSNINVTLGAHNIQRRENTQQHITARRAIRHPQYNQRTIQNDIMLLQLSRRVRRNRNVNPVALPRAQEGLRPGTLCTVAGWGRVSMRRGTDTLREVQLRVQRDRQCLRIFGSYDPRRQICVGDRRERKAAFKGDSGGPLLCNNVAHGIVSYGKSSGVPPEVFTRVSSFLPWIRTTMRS


Legend:
Test in all cases: cell-based or functional assay
ADAMTS5 = molecular target: T1, ADAMTS5
MMP1 = molecular target: T2, MMP1
MMP9 = MMP9 (human, UniProt P14780 107-707, limits assumed)
Sequence of MMP9 (P14780 107-707 limits assumed): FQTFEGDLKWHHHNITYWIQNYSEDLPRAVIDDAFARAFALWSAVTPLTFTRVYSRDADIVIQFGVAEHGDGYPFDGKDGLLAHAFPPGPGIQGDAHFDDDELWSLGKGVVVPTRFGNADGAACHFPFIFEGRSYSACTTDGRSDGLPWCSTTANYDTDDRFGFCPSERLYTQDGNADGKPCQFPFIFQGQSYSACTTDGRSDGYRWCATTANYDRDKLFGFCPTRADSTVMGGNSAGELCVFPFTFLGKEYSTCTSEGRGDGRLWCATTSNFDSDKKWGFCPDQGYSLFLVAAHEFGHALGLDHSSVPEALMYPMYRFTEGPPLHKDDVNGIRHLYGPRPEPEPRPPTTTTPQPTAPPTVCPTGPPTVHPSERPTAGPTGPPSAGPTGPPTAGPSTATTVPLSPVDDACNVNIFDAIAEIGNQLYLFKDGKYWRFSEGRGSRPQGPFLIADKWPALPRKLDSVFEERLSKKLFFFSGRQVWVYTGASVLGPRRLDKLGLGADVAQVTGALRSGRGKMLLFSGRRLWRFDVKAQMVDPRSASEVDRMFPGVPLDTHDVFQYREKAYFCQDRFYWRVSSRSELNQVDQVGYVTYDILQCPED

MMP13 = MMP13 (human, UniProt P45452 104-471, limits assumed)
MMP7 = molecular target: T3, MMP7
MMP2 = molecular target: T4, MMP2
ADAMTS4 = molecular target: T5, ADAMTS4
MMP3 = MMP3 (human, UniProt P08254 100-477, limits assumed)
Sequence of MMP3 (P08254 100-477 limits assumed): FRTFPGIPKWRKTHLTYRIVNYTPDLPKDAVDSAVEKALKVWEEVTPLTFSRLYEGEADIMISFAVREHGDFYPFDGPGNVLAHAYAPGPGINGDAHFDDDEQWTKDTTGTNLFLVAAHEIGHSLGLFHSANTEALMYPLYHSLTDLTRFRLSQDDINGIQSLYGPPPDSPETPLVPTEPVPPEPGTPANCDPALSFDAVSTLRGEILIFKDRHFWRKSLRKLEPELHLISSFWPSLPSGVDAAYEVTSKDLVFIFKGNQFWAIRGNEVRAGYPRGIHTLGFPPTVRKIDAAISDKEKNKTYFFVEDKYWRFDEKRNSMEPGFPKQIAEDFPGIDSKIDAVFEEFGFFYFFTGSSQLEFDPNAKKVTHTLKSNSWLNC

Elastase = molecular target: Elastase
Cathepsin G = molecular target: T6, Cathepsin G
MMP8 = MMP8 (human, UniProt P22894 101-467, limits assumed)
Sequence of MMP8 (P22894 101-467 limits assumed): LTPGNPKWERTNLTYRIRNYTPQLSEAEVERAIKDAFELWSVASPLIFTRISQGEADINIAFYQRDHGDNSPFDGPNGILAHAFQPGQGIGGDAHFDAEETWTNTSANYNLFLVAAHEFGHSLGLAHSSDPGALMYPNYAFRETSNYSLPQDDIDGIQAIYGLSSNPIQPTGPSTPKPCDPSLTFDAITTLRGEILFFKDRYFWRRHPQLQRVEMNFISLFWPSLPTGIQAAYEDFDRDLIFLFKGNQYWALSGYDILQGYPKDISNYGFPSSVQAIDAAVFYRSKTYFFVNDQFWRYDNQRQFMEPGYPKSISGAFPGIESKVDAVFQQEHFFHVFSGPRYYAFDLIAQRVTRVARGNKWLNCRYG

Row | Protease Inhibition (% of WT) (ADAMTS5) | Protease Inhibition (% of WT) (MMP1) | Protease Inhibition (% of WT) (MMP9) | Protease Inhibition (% of WT) (MMP13) | Protease Inhibition (% of WT) (MMP7) | Protease Inhibition (% of WT) (MMP2) | Protease Inhibition (% of WT) (ADAMTS4) | Protease Inhibition (% of WT) (MMP3) | Protease Inhibition (% of WT) (Elastase) | Protease Inhibition (% of WT) (Cathepsin G) | Protease Inhibition (% of WT) (MMP8) | Binder
1 | 183 % of WT | 116 % of WT | 41 % of WT | 143 % of WT | 157 % of WT | 59 % of WT | 83 % of WT | 40 % of WT | 115 % of WT | 139 % of WT | 77 % of WT | Variant A2M, bait region SEQ ID NO 15 (other) SVSGKPQYMVLVPSLLHTETTEKGCVLLSYLNETVTVSASLESVRGNRSLFTDLEAENDVLHCVAFAVPKSSSNEEVMFLTVQVKGPTQEFKKRTTVMVKNEDSLVFVQTDKSIYKPGQTVKFRVVSMDENFHPLNELIPLVYIQDPKGNRIAQWQSFQLEGGLKQFSFPLSSEPFQGSYKVVVQKKSGGRTEHPFTVEEFVLPKFEVQVTVPKIITILEEEMNVSVCGLYTYGKPVPGHVTVSICRKYSDASDCHGEDSQAFCEKFSGQLNSHGCFYQQVKTKVFQLKRKEYEMKLHTEAQIQEEGTVVELTGRQSSEITRTITKLSFVKVDSHFRQGIPFFGQVRLVDGKGVPIPNKVIFIRGNEANYYSNATTDEHGLVQFSINTTNVMGTSLTVRVNYKDRSPCYGYQWVSEEHEEAHHTAYLVFSPSKSFVHLEPMSHELPCGHTQTVQAHYILNGGTLLGLKKLSFYYLIMAKGGIVRTGTHGLLVKQEDMKGHFSISIPVKSDIAPVARLLIYAVLPTGDVIGDSAKYDVENCLANKVDLSFSPSQSLPASHAHLRVTAAPQSVCALRAVDQSVLLMKPDAELSASSVYNLLPEKDLTGFPGPLNDQDDEDCINRHNVYINGITYTPVSSTNEKDMYSFLEDMGLKAFTNSKIRKPKMCPQLEHGPEGEGEGEGIPENFFGVSEDLVVQISELEGRGSRYLTAVEEPHTKLRKYFPETWIWDLVVVNSAGVAEVGVTVPDTITEWKAGAFCLSEDAGLGISSTASLRAFQPFFVELTMPYSVIRGEAFTLKATVLNYLPKCIRVSVQLEASPAFLAVPVEKEQAPHCICANGRQTVSWAVTPKSLGNVNFTVSAEALESQELCGTEVPSVPEHGRKDTVIKPLLVEPEGLEKETTFNSLLCPSGGEVSEELSLKLPPNVVEESARASVSVLGDILGSAMQNTQNLLQMPYGCGEQNMVLFAPNIYVLDYLNETQQLTPEIKSKAIGYLNTGYQRQLNYKHYDGSYSTFGERYGRNQGNTWLTAFVLKTFAQARAYIFIDEAHITQALIWLSQRQKDNGCFRSSGSLLNNAIKGGVEDEVTLSAYITIALLEIPLTVTHPVVRNALFCLESAWKTAQEGDHGSHVYTKALLAYAFALAGNQDKRKEVLKSLNEEAVKKDNSVHWERPQKPKAPVGHFYEPQAPSAEVEMTSYVLLAYLTAQPAPTSEDLTSATNIVKWITKQQNAQGGFSSTQDTVVALHALSKYGAATFTRTGKAAQVTIQSSGTFSSKFQVDNNNRLLLQQVSLPELPGEYSMKVTGEGCVYLQTSLKYNILPEKEEFPFALGVQTLPQTCDEPKAHTSFQISLSVSYTGSRSASNMAIVDVKMVSGFIPLKPTVKMLERSNHVSRTEVSSNHVLIYLDKVSNQTLSLFFTVLQDVPVRDLKPAIVKVYDYYETDEFAIAEYNAPCSKDLGNADYKDDDDKGASHHHHHH
2 | 105 % of WT | 60 % of WT | 14 % of WT | 66 % of WT | 61 % of WT | 10 % of WT | 236 % of WT | 169 % of WT | 67 % of WT | 99 % of WT | 39 % of WT | Variant A2M, bait region SEQ ID NO 14 (other) SVSGKPQYMVLVPSLLHTETTEKGCVLLSYLNETVTVSASLESVRGNRSLFTDLEAENDVLHCVAFAVPKSSSNEEVMFLTVQVKGPTQEFKKRTTVMVKNEDSLVFVQTDKSIYKPGQTVKFRVVSMDENFHPLNELIPLVYIQDPKGNRIAQWQSFQLEGGLKQFSFPLSSEPFQGSYKVVVQKKSGGRTEHPFTVEEFVLPKFEVQVTVPKIITILEEEMNVSVCGLYTYGKPVPGHVTVSICRKYSDASDCHGEDSQAFCEKFSGQLNSHGCFYQQVKTKVFQLKRKEYEMKLHTEAQIQEEGTVVELTGRQSSEITRTITKLSFVKVDSHFRQGIPFFGQVRLVDGKGVPIPNKVIFIRGNEANYYSNATTDEHGLVQFSINTTNVMGTSLTVRVNYKDRSPCYGYQWVSEEHEEAHHTAYLVFSPSKSFVHLEPMSHELPCGHTQTVQAHYILNGGTLLGLKKLSFYYLIMAKGGIVRTGTHGLLVKQEDMKGHFSISIPVKSDIAPVARLLIYAVLPTGDVIGDSAKYDVENCLANKVDLSFSPSQSLPASHAHLRVTAAPQSVCALRAVDQSVLLMKPDAELSASSVYNLLPEKDLTGFPGPLNDQDDEDCINRHNVYINGITYTPVSSTNEKDMYSFLEDMGLKAFTNSKIRKPKMCPQLEHGPEGEGEGEGIPRYLTAENFFGVSEDLVVQISELEGRGSVEEPHTKLRKYFPETWIWDLVVVNSAGVAEVGVTVPDTITEWKAGAFCLSEDAGLGISSTASLRAFQPFFVELTMPYSVIRGEAFTLKATVLNYLPKCIRVSVQLEASPAFLAVPVEKEQAPHCICANGRQTVSWAVTPKSLGNVNFTVSAEALESQELCGTEVPSVPEHGRKDTVIKPLLVEPEGLEKETTFNSLLCPSGGEVSEELSLKLPPNVVEESARASVSVLGDILGSAMQNTQNLLQMPYGCGEQNMVLFAPNIYVLDYLNETQQLTPEIKSKAIGYLNTGYQRQLNYKHYDGSYSTFGERYGRNQGNTWLTAFVLKTFAQARAYIFIDEAHITQALIWLSQRQKDNGCFRSSGSLLNNAIKGGVEDEVTLSAYITIALLEIPLTVTHPVVRNALFCLESAWKTAQEGDHGSHVYTKALLAYAFALAGNQDKRKEVLKSLNEEAVKKDNSVHWERPQKPKAPVGHFYEPQAPSAEVEMTSYVLLAYLTAQPAPTSEDLTSATNIVKWITKQQNAQGGFSSTQDTVVALHALSKYGAATFTRTGKAAQVTIQSSGTFSSKFQVDNNNRLLLQQVSLPELPGEYSMKVTGEGCVYLQTSLKYNILPEKEEFPFALGVQTLPQTCDEPKAHTSFQISLSVSYTGSRSASNMAIVDVKMVSGFIPLKPTVKMLERSNHVSRTEVSSNHVLIYLDKVSNQTLSLFFTVLQDVPVRDLKPAIVKVYDYYETDEFAIAEYNAPCSKDLGNADYKDDDDKGASHHHHHH
